Source: EP1053001B1
Non-standard residues stand in square brackets, D forms with d. No end group written: not given here. *: point of attachment. Aib = CC(C)(N)C(=O)O; For = O=C*

Biological target: T1, calcitonin receptors (human T47D / MCF7 breast carcinoma cells) (human), P30988
T1 chain: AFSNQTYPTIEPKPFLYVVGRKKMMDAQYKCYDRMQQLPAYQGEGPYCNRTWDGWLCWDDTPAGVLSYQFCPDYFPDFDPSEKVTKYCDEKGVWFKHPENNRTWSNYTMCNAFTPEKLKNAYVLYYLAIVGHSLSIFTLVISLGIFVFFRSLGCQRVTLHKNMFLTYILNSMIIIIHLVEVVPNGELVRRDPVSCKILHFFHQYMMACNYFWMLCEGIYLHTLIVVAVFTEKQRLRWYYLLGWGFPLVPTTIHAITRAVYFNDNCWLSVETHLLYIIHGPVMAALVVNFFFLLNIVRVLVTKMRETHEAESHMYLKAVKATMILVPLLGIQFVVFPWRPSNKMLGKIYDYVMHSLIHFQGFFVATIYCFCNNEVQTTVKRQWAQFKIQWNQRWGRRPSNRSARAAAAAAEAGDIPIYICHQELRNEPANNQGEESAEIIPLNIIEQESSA
Assay: radioligand competition vs 125I-salmon calcitonin, human T47D cell membranes

With VL[Aib]K(For)LSQEL[Aib]K(For)LQTYPRTNTGSNTY-NH2 [Compound 8] the IC50 was 93 nM.
